In article PMC3032881:
Read-outs that look alike come from different tables or passages of the source.

Experiments:
[1] = biological target: soluble recombinant HLA A*0201 (α chain tagged with a biotinylation sequence, with β2m); test: SPR; real time pMHC stability assay, BIAcore 3000, CM5 chip; ~500 RU of biotinylated refolded pMHCI immobilised on streptavidin; flow 10 μl/min for 15,000 s; Langmuir dissociation analysis converted to half-life
[2] = biological target: HLA A*0201 on the surface of TAP deficient T2 cells (human (endogenous in T2 cells)); test: flow cytometry on cells; T2-binding assay: TAP deficient T2 cells with peptide at 100, 50, 10 and 1 μM in AIM-V, 10 min 37 °C, room temperature overnight, 2 h 37 °C; surface HLA A*0201 stained with anti-human HLA A*0201:RPE; MFI fitted (log(agonist) vs. response) to logEC50
[3] = biological target: soluble recombinant HLA A*0201 (α chain tagged with a biotinylation sequence, with β2m); test: SPR; real time pMHC stability assay, BIAcore 3000, CM5 chip; ~500 RU of biotinylated refolded pMHCI immobilised on streptavidin; flow 10 μl/min for 15,000 s; Langmuir dissociation analysis converted to half-life; remark: listed apart in the source
[4] = biological target: HLA A*0201 on the surface of TAP deficient T2 cells (human (endogenous in T2 cells)); test: flow cytometry on cells; T2-binding assay: TAP deficient T2 cells with peptide at 100, 50, 10 and 1 μM in AIM-V, 10 min 37 °C, room temperature overnight, 2 h 37 °C; surface HLA A*0201 stained with anti-human HLA A*0201:RPE; MFI fitted (log(agonist) vs. response) to logEC50; remark: listed apart in the source

half-life [1] [h]	LogEC50 [2] [M]	half-life [3] [h]	koff [3] [s⁻¹]	LogEC50 [4] [M]	Binder
5.8	-3.59	–	–	–	YLEPGPVTA (modifications not checked) [gp100 280-288 peptide YLEPGPVA]
–	–	10.1	1.9e-05	-4.37	SLLMWITQL [NY-ESO-1 157-165 heteroclitic peptide …]
